According to publication PMC11435032, “Development of Biolayer Interferometry (BLI)-Based Double-Stranded RNA Detection Method with Application in mRNA-Based Therapeutics and Vaccines”:

Columns and labels:
[1] = test system: B2 (FHV B2 1-73) (Flock House Virus); assay: BLI; details: BLI (Octet RED384): 10 mM Tris pH 8.0, 100 mM NaCl, 0.1 mg/mL yeast tRNA, 0.1 mM EDTA, 0.05% Tween-20, temperature not stated
J2 anti-dsRNA antibody = assay: BLI; details: kinetic, BLI (Octet RED384): 10 mM Tris pH 8.0, 100 mM NaCl, 0.1 mg/mL yeast tRNA, 0.1 mM EDTA, 0.05% Tween-20, temperature not stated
K1 anti-dsRNA antibody = assay: BLI; details: BLI (Octet RED384): 10 mM Tris pH 8.0, 100 mM NaCl, 0.1 mg/mL yeast tRNA, 0.1 mM EDTA, 0.05% Tween-20, temperature not stated
B2-Biotin (B2-Avi) = B2-Biotin (B2-Avi) (Flock House Virus, UniProt P68831 1-73); assay: BLI; avidity surface; lower asymptote than long dsRNA; BLI (Octet RED384): 10 mM Tris pH 8.0, 100 mM NaCl, 0.1 mg/mL yeast tRNA, 0.1 mM EDTA, 0.05% Tween-20; temperature not stated; details: protein: recombinant; tags: N-terminal 6xHis; C-terminal GS linker-AviTag, biotinylated by BirA in vivo; chain copies: 2; blunt
Chain of B2-Biotin (B2-Avi) (P68831 1-73): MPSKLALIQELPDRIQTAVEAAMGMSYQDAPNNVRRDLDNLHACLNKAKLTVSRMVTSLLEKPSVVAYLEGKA

[2] = U replaced by N1-methylpseudouridine

700 bp-m1ψ
Kd [1, 2]: 669 nM
Kd (J2 anti-dsRNA antibody; [2]): 56 nM

700 bp-5 moU
Kd ([1]; U replaced by 5-methoxyuridine): 948 nM
Kd (J2 anti-dsRNA antibody; U replaced by 5-methoxyuridine): 131 nM
binding signal (fold weaker than 700 bp-U) (K1 anti-dsRNA antibody; Kd value missing in material, U replaced by 5-methoxyuridine): 4

700 bp-U
Kd [1]: 62 nM
Kd (J2 anti-dsRNA antibody): 27 nM
Kd (K1 anti-dsRNA antibody): 325 nM

700 bp-ψ
Kd ([1]; U replaced by pseudouridine): 405 nM
Kd (J2 anti-dsRNA antibody; U replaced by pseudouridine): 32 nM

B1: 25 bp-m1ψ dsRNA (dsRNA)
RNA 1: CACGUACCGUUCUAGCGGGCUCUCG
RNA 2: CGAGAGCCCGCUAGAACGGUACGUG
modifications: U replaced by N1-methylpseudouridine
binding result (B2-Biotin (B2-Avi)): binds

B2: 25 bp-U dsRNA (dsRNA)
RNA 1: CACGUACCGUUCUAGCGGGCUCUCG
RNA 2: CGAGAGCCCGCUAGAACGGUACGUG
binding result (B2-Biotin (B2-Avi)): binds
